Results as given in patent publication US12616740B2, “Methods of using a GIP/GLP1 co-agonist for therapy” (ELI LILLY AND COMPANY, priority 2018, dated 2026).

Assay: NCT03131687: nausea, vomiting and diarrhea, new events per interval
Assay type: in vivo, human
Procedure: Clinical Study (NCT03131687) Supporting Maintenance Dose Embodiments A 6-month (26-week) Phase 2 double-blind clinical study is designed to evaluate the safety, efficacy, and PK/PD of 4 dose levels (1 mg, 5 mg, 10 mg and 15 mg respectively) of tirzepatide once weekly by subcutaneous injection compared with dulaglutide 1.5 mg. once weekly (QW) and placebo QW in patients with T2DM who have inadequate glycemic control with diet and exercise with or without a stable dose of metformin. Tirzepatide dose is up-titrated to the maintenance dose using the following weekly dose increments:
The study also has a 4-week follow up period. In addition to safety and efficacy for treating T2DM, efficacy endpoints include the effect of tirzepatide on HbA1c, FBG, body weight, lipids, and waist circumference compared with placebo and with dulaglutide 1.5 mg. The study also evaluates the effect of tirzepatide on GI tolerability, hypoglycemia, hypersensitivity reactions, and pancreatic safety, as well as the development of treatment-emergent anti-drug antibodies. Model-based dose response analyses are performed to predict potential for significant HbA1c lowering and weight loss in longer studies. Statistical Analyses: Efficacy: The primary efficacy outcome of HbA1c change from baseline to the 26-week endpoint is analyzed using a Bayesian dose-response model. Analyses are performed on the intention to treat population (mITT) analysis set. Supportive analysis of the primary efficacy outcome for the mITT dataset are the model for post-baseline measures (MMRM) with body mass index (BMI) (<30 kg/m^2, ≥30 kg/m^2), metformin use, treatment, visit, and treatment-by-visit interaction as fixed effects, baseline HbA1c as a covariate, and patient as a random effect. The mean weight change from baseline at 12 and 26 weeks, along with the mean change from baseline of HbA1c at 12 weeks, is analyzed using similar dose-response models as the primary analyses. The percentages of patients with ≥5% or ≥10% body weight loss, reaching the HbA1c target of ≤6.5% or ≤7.0% at 26 weeks, or requiring rescue therapy are analyzed using logistic regression with fixed effects of treatment and strata, and baseline as a covariate. The changes from baseline in FBG (fasting blood glucose), SMBG (self-monitored blood glucose) levels, waist circumference, and mean percentage change in lipids from baseline to 12 and 26 weeks are analyzed using a similar MMRM to the one used for the primary analyses. Table Abbreviations: Dula 1.5 mg=dulaglutide 1.5 mg once weekly; LY means tirzepatide, and LY 1 mg=tirzepatide 1 mg once weekly; LY 5 mg=5 mg once weekly; LY 10 mg=escalation dose group tirzepatide once weekly with highest dose of 10 mg; LY 15 mg=escalation dose group of tirzepatide once weekly with highest dose 15 mg; LOCF=last observation-carried-forward; N=number of patients; pbo=placebo; Week 26=mITT on-treatment data at Week 26 excluding data after study drug discontinuation or rescue drug initiation; mITT=modified intent-to-treat; SD=standard deviation. For Table 4, n=number of patients in the population with baseline and post-baseline value at the specified time point. For Table 6, LY10 mg=escalation dose group tirzepatide, once weekly with highest dose of 10 mg; escalation dose: (5 mg weeks 0 and 1), LY15 mg=escalation dose group tirzepatide, once weekly with highest dose of 15 mg; escalation dose: (5 mg weeks 0 and 1; 10 mg weeks 2 to 5); N=number of patients in specified group, m=number of patients who experienced new event during interval, FolUp=follow up, T/Wk=Time range, (week) and %=means percent patients spending at least some time in treatment group who experienced new event during interval. For Table 7, n is the number of patients with events meeting the criteria; N is number of patients in the population; % is percent of patients in treatment group experiencing the event.

[1] = LY10 mg (tirzepatide 5 mg weeks 0 and 1, then 10 mg once weekly), N = 51, Fol Up (follow up)
[2] = LY10 mg (tirzepatide 5 mg weeks 0 and 1, then 10 mg once weekly), N = 51, T/Wk 0
[3] = LY10 mg (tirzepatide 5 mg weeks 0 and 1, then 10 mg once weekly), N = 51, T/Wk 1
[4] = LY10 mg (tirzepatide 5 mg weeks 0 and 1, then 10 mg once weekly), N = 51, T/Wk 2
[5] = LY10 mg (tirzepatide 5 mg weeks 0 and 1, then 10 mg once weekly), N = 51, T/Wk 3
[6] = LY10 mg (tirzepatide 5 mg weeks 0 and 1, then 10 mg once weekly), N = 51, T/Wk 4
[7] = LY10 mg (tirzepatide 5 mg weeks 0 and 1, then 10 mg once weekly), N = 51, T/Wk 5
[8] = LY10 mg (tirzepatide 5 mg weeks 0 and 1, then 10 mg once weekly), N = 51, T/Wk 6
[9] = LY10 mg (tirzepatide 5 mg weeks 0 and 1, then 10 mg once weekly), N = 51, T/Wk 7
[10] = LY10 mg (tirzepatide 5 mg weeks 0 and 1, then 10 mg once weekly), N = 51, T/Wk 8
[11] = LY10 mg (tirzepatide 5 mg weeks 0 and 1, then 10 mg once weekly), N = 51, T/Wk 9
[12] = LY10 mg (tirzepatide 5 mg weeks 0 and 1, then 10 mg once weekly), N = 51, T/Wk 10
[13] = LY10 mg (tirzepatide 5 mg weeks 0 and 1, then 10 mg once weekly), N = 51, T/Wk 11
[14] = LY10 mg (tirzepatide 5 mg weeks 0 and 1, then 10 mg once weekly), N = 51, T/Wk 12
[15] = LY10 mg (tirzepatide 5 mg weeks 0 and 1, then 10 mg once weekly), N = 51, T/Wk >12 < 16
[16] = LY10 mg (tirzepatide 5 mg weeks 0 and 1, then 10 mg once weekly), N = 51, T/Wk >16 ≤ 20
[17] = LY10 mg (tirzepatide 5 mg weeks 0 and 1, then 10 mg once weekly), N = 51, T/Wk >20
[18] = LY15 mg (tirzepatide 5 mg weeks 0 and 1; 10 mg weeks 2 to 5; then 15 mg once weekly), N = 53, Fol Up (follow up)
[19] = LY15 mg (tirzepatide 5 mg weeks 0 and 1; 10 mg weeks 2 to 5; then 15 mg once weekly), N = 53, T/Wk 0
[20] = LY15 mg (tirzepatide 5 mg weeks 0 and 1; 10 mg weeks 2 to 5; then 15 mg once weekly), N = 53, T/Wk 1
[21] = LY15 mg (tirzepatide 5 mg weeks 0 and 1; 10 mg weeks 2 to 5; then 15 mg once weekly), N = 53, T/Wk 2
[22] = LY15 mg (tirzepatide 5 mg weeks 0 and 1; 10 mg weeks 2 to 5; then 15 mg once weekly), N = 53, T/Wk 3
[23] = LY15 mg (tirzepatide 5 mg weeks 0 and 1; 10 mg weeks 2 to 5; then 15 mg once weekly), N = 53, T/Wk 4
[24] = LY15 mg (tirzepatide 5 mg weeks 0 and 1; 10 mg weeks 2 to 5; then 15 mg once weekly), N = 53, T/Wk 5
[25] = LY15 mg (tirzepatide 5 mg weeks 0 and 1; 10 mg weeks 2 to 5; then 15 mg once weekly), N = 53, T/Wk 6
[26] = LY15 mg (tirzepatide 5 mg weeks 0 and 1; 10 mg weeks 2 to 5; then 15 mg once weekly), N = 53, T/Wk 7
[27] = LY15 mg (tirzepatide 5 mg weeks 0 and 1; 10 mg weeks 2 to 5; then 15 mg once weekly), N = 53, T/Wk 8
[28] = LY15 mg (tirzepatide 5 mg weeks 0 and 1; 10 mg weeks 2 to 5; then 15 mg once weekly), N = 53, T/Wk 9
[29] = LY15 mg (tirzepatide 5 mg weeks 0 and 1; 10 mg weeks 2 to 5; then 15 mg once weekly), N = 53, T/Wk 10
[30] = LY15 mg (tirzepatide 5 mg weeks 0 and 1; 10 mg weeks 2 to 5; then 15 mg once weekly), N = 53, T/Wk 11
[31] = LY15 mg (tirzepatide 5 mg weeks 0 and 1; 10 mg weeks 2 to 5; then 15 mg once weekly), N = 53, T/Wk 12
[32] = LY15 mg (tirzepatide 5 mg weeks 0 and 1; 10 mg weeks 2 to 5; then 15 mg once weekly), N = 53, T/Wk >12 < 16
[33] = LY15 mg (tirzepatide 5 mg weeks 0 and 1; 10 mg weeks 2 to 5; then 15 mg once weekly), N = 53, T/Wk >16 ≤ 20
[34] = LY15 mg (tirzepatide 5 mg weeks 0 and 1; 10 mg weeks 2 to 5; then 15 mg once weekly), N = 53, T/Wk >20

tirzepatide [LY]
Nausea Vomiting and Diarrhea: % patients who experienced new event during interval [1]: 2.1% | Nausea Vomiting and Diarrhea: m, number of patients who experienced new event during interval [1]: 1 | Nausea Vomiting and Diarrhea: % patients who experienced new event during interval [2]: 20% | Nausea Vomiting and Diarrhea: m, number of patients who experienced new event during interval [2]: 9 | Nausea Vomiting and Diarrhea: % patients who experienced new event during interval [3]: 3.9% | Nausea Vomiting and Diarrhea: m, number of patients who experienced new event during interval [3]: 2 | Nausea Vomiting and Diarrhea: % patients who experienced new event during interval [4]: 3.9% | Nausea Vomiting and Diarrhea: m, number of patients who experienced new event during interval [4]: 2 | Nausea Vomiting and Diarrhea: % patients who experienced new event during interval [5]: 2.0% | Nausea Vomiting and Diarrhea: m, number of patients who experienced new event during interval [5]: 1 | Nausea Vomiting and Diarrhea: % patients who experienced new event during interval [6]: 6.0% | Nausea Vomiting and Diarrhea: m, number of patients who experienced new event during interval [6]: 3 | Nausea Vomiting and Diarrhea: % patients who experienced new event during interval [7]: 4.0% | Nausea Vomiting and Diarrhea: m, number of patients who experienced new event during interval [7]: 2 | Nausea Vomiting and Diarrhea: % patients who experienced new event during interval [8]: 2.0% | Nausea Vomiting and Diarrhea: m, number of patients who experienced new event during interval [8]: 1 | Nausea Vomiting and Diarrhea: % patients who experienced new event during interval [9]: 4.1% | Nausea Vomiting and Diarrhea: m, number of patients who experienced new event during interval [9]: 2 | Nausea Vomiting and Diarrhea: % patients who experienced new event during interval [10]: 2.0% | Nausea Vomiting and Diarrhea: m, number of patients who experienced new event during interval [10]: 1 | Nausea Vomiting and Diarrhea: % patients who experienced new event during interval [11]: 4.1% | Nausea Vomiting and Diarrhea: m, number of patients who experienced new event during interval [11]: 2 | Nausea Vomiting and Diarrhea: % patients who experienced new event during interval [12]: m = 0; 0% | Nausea Vomiting and Diarrhea: m, number of patients who experienced new event during interval [12]: m = 0; 0% | Nausea Vomiting and Diarrhea: % patients who experienced new event during interval [13]: m = 0; 0% | Nausea Vomiting and Diarrhea: m, number of patients who experienced new event during interval [13]: m = 0; 0% | Nausea Vomiting and Diarrhea: % patients who experienced new event during interval [14]: 2.0% | Nausea Vomiting and Diarrhea: m, number of patients who experienced new event during interval [14]: 1 | Nausea Vomiting and Diarrhea: % patients who experienced new event during interval [15]: 2.0% | Nausea Vomiting and Diarrhea: m, number of patients who experienced new event during interval [15]: 1 | Nausea Vomiting and Diarrhea: % patients who experienced new event during interval [16]: 2.1% | Nausea Vomiting and Diarrhea: m, number of patients who experienced new event during interval [16]: 1 | Nausea Vomiting and Diarrhea: % patients who experienced new event during interval [17]: 2.1% | Nausea Vomiting and Diarrhea: m, number of patients who experienced new event during interval [17]: 1 | Nausea Vomiting and Diarrhea: % patients who experienced new event during interval [18]: 0.0% | Nausea Vomiting and Diarrhea: m, number of patients who experienced new event during interval [18]: 0 | Nausea Vomiting and Diarrhea: % patients who experienced new event during interval [19]: 32.1% | Nausea Vomiting and Diarrhea: m, number of patients who experienced new event during interval [19]: 17 | Nausea Vomiting and Diarrhea: % patients who experienced new event during interval [20]: 18.9% | Nausea Vomiting and Diarrhea: m, number of patients who experienced new event during interval [20]: 10 | Nausea Vomiting and Diarrhea: % patients who experienced new event during interval [21]: 5.8% | Nausea Vomiting and Diarrhea: m, number of patients who experienced new event during interval [21]: 3 | Nausea Vomiting and Diarrhea: % patients who experienced new event during interval [22]: 11.4% | Nausea Vomiting and Diarrhea: m, number of patients who experienced new event during interval [22]: 6 | Nausea Vomiting and Diarrhea: % patients who experienced new event during interval [23]: 5.9% | Nausea Vomiting and Diarrhea: m, number of patients who experienced new event during interval [23]: 3 | Nausea Vomiting and Diarrhea: % patients who experienced new event during interval [24]: 2.0% | Nausea Vomiting and Diarrhea: m, number of patients who experienced new event during interval [24]: 1 | Nausea Vomiting and Diarrhea: % patients who experienced new event during interval [25]: 3.9% | Nausea Vomiting and Diarrhea: m, number of patients who experienced new event during interval [25]: 2 | Nausea Vomiting and Diarrhea: % patients who experienced new event during interval [26]: 5.9% | Nausea Vomiting and Diarrhea: m, number of patients who experienced new event during interval [26]: 3 | Nausea Vomiting and Diarrhea: % patients who experienced new event during interval [27]: 4.0% | Nausea Vomiting and Diarrhea: m, number of patients who experienced new event during interval [27]: 2 | Nausea Vomiting and Diarrhea: % patients who experienced new event during interval [28]: 0.0% | Nausea Vomiting and Diarrhea: m, number of patients who experienced new event during interval [28]: 0 | Nausea Vomiting and Diarrhea: % patients who experienced new event during interval [29]: 0.0% | Nausea Vomiting and Diarrhea: m, number of patients who experienced new event during interval [29]: 0 | Nausea Vomiting and Diarrhea: % patients who experienced new event during interval [30]: 2.0% | Nausea Vomiting and Diarrhea: m, number of patients who experienced new event during interval [30]: 1 | Nausea Vomiting and Diarrhea: % patients who experienced new event during interval [31]: 2.1% | Nausea Vomiting and Diarrhea: m, number of patients who experienced new event during interval [31]: 1 | Nausea Vomiting and Diarrhea: % patients who experienced new event during interval [32]: 2.1% | Nausea Vomiting and Diarrhea: m, number of patients who experienced new event during interval [32]: 1 | Nausea Vomiting and Diarrhea: % patients who experienced new event during interval [33]: 2.1% | Nausea Vomiting and Diarrhea: m, number of patients who experienced new event during interval [33]: 1 | Nausea Vomiting and Diarrhea: % patients who experienced new event during interval [34]: 2.1% | Nausea Vomiting and Diarrhea: m, number of patients who experienced new event during interval [34]: 1
